Here are results for 1 molecule from article PMC2950913 (Nature structural & molecular biology, 2010).

The target in this assay is T1, RAD51 recombinase (human, UniProt Q06609 1-339).
T1 sequence: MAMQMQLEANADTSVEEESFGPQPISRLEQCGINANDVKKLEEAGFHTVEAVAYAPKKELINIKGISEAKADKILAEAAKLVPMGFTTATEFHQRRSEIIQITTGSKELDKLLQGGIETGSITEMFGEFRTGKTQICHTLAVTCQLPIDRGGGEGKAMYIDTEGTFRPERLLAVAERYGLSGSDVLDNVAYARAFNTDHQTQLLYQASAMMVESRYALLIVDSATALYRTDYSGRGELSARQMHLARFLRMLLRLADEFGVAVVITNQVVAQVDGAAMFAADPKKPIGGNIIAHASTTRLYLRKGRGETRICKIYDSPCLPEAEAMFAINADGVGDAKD
Put plainly: pull-down.

B1: GST-tagged PALB2 1-184 fragment (domain or fragment)
chain: MDEPPGKPLSCEEKEKLKEKLAFLKREYSKTLARLQRAQRAEKIKHSIKKTVEEQDCLSQQDLSPQLKHSEPKNKICVYDKLHIKTHLDEETGEKTSITLDVGPESFNPGDGPGGLPIQRTDDTQEHFPHRVSDPSGEQKQKLPSRRKKQQKRTFISQERDCVFGTDSLRLSGKRLKEQEEISS
For the molecule B1, the binding result is recorded as “binds”.
